Data reported in patent US20220153847A1 (Chugai, published 2022).

Legend:
[1] = biological target: DQ2.5/omega 2 gliadin peptide on IHW9023 cells (human); assay: cell-based or functional assay
[2] = biological target: DQ2.5/gamma 1 gliadin peptide on IHW9023 cells (human); assay: cell-based or functional assay
[3] = biological target: DQ2.5/alpha 1b gliadin peptide on IHW9023 cells (human); assay: cell-based or functional assay
[4] = biological target: DQ2.5/BC hordein peptide on IHW9023 cells (human); assay: cell-based or functional assay
[5] = biological target: DQ2.5/alpha 1 gliadin peptide on IHW9023 cells (human); assay: cell-based or functional assay
[6] = biological target: DQ2.5/alpha 2 gliadin peptide on IHW9023 cells (human); assay: cell-based or functional assay
[7] = biological target: DQ2.5/gamma 4a gliadin peptide on IHW9023 cells (human); assay: cell-based or functional assay
[8] = biological target: DQ2.5/omega 1 gliadin peptide on IHW9023 cells (human); assay: cell-based or functional assay
HLA-DQ6.3 on Ba/F3 cells = biological target: T1, HLA-DQ6.3 on Ba/F3 cells (human, UniProt P01920 33-230, limits assumed); assay: FACS on Ba/F3-HLA-DQ6.3 cells, single antibody concentration, goat F(ab')2 anti-human IgG-PE
T1 construct: whole, on cells; also called Ba/F3-HLA-DQ6.3
T1 MHC II alpha: not shown
T1 MHC II beta: not shown

HLA-DR on Ba/F3 cells = biological target: T2, HLA-DR on Ba/F3 cells (human, UniProt P01903 26-216; P79483 30-227, limits assumed); assay: FACS on Ba/F3-HLA-DR cells, single antibody concentration, goat F(ab')2 anti-human IgG-PE
T2 construct: whole, on cells; also called Ba/F3-HLA-DR
T2 MHC II alpha: not shown
T2 MHC II beta: not shown

[9] = biological target: T3, HLA-DQ2.5/33mer gliadin peptide complex on Ba/F3 cells (human); assay: FACS, Ba/F3 cells; IC17=0%, DQN0139bb//IC17=100%;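 note: flow cytometry binding of anti-HLA-DQ antibodies at 5 µg/mL, incubated 30 min at room temperature with Ba/F3 lines presenting HLA-DQ/peptide complexes; antibody tested at 5 microgram/mL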
T3 construct: whole, on cells; also called Ba/F3-HLA-DQ2.5/33mer gliadin
Text: (§1) The binding of anti-HLA-DQ antibodies to Ba/F3-HLA-DQ2.5, Ba/F3-HLA-DQ2.2, Ba/F3-HLA-DQ7.5, Ba/F3-HLA-DQ8, Ba/F3-HLA-DQ5.1, Ba/F3-HLA-DQ6.3, Ba/F3-HLA-DQ7.3, Ba/F3-HLA-DR, Ba/F3-HLA-DP, Ba/F3-HLA-DQ2.5/CLIP, Ba/F3-HLA-DQ2.5/HBV, Ba/F3-HLA-DQ2.5/Salmonella, Ba/F3-HLA-DQ2.5/TPO, Ba/F3-HLA-DQ2.5/M. bovis, Ba/F3-HLA-DQ2.5/alpha 1 gliadin, Ba/F3-HLA-DQ2.5/alpha 2 gliadin, Ba/F3-HLA-DQ2.5/gamma 1 gliadin, Ba/F3-HLA-DQ2.5/gamma 2 gliadin, Ba/F3-HLA-DQ2.5/omega 1 gliadin, Ba/F3-HLA-DQ2.5/omega 2 gliadin, Ba/F3-HLA-DQ2.5/BC hordein, Ba/F3-HLA-DQ2.5/alpha 3 gliadin, Ba/F3-HLA-DQ2.5/alpha 1b gliadin, Ba/F3-HLA-DQ2.5/gamma 4b gliadin, Ba/F3-HLA-DQ2.5/avenin 1, Ba/F3-HLA-DQ2.5/avenin 2, Ba/F3-HLA-DQ2.5/avenin 3, Ba/F3-HLA-DQ2.5/hordein 1, Ba/F3-HLA-DQ2.5/hordein 2, Ba/F3-HLA-DQ2.5/secalin 1, Ba/F3-HLA-DQ2.5/secalin 2, Ba/F3-HLA-DQ2.5/14mer 1, Ba/F3-HLA-DQ2.5/33mer gliadin, Ba/F3-HLA-DQ2.5/26mer gliadin, was tested. 5 microgram/mL of each of the anti-HLA-DQ antibodies was incubated with each cell line for 30 minutes at room temperature and washed with FACS buffer (2% FBS, 2 mM EDTA in PBS).

HLA-DQ5.1 on Ba/F3 cells = biological target: T4, HLA-DQ5.1 on Ba/F3 cells (human, limits assumed); assay: FACS on Ba/F3-HLA-DQ5.1 cells, single antibody concentration, goat F(ab')2 anti-human IgG-PE
T4 construct: whole, on cells; also called Ba/F3-HLA-DQ5.1
T4 MHC II alpha: not shown
T4 MHC II beta: not shown

HLA-DP on Ba/F3 cells = biological target: T5, HLA-DP on Ba/F3 cells (human, UniProt P20036 29-222; P04440 30-225, limits assumed); assay: FACS on Ba/F3-HLA-DP cells, single antibody concentration, goat F(ab')2 anti-human IgG-PE
T5 construct: whole, on cells; also called Ba/F3-HLA-DP

HLA-DQ7.3 on Ba/F3 cells = biological target: T6, HLA-DQ7.3 on Ba/F3 cells (human, UniProt P01909 24-216; P01920 33-230, limits assumed); assay: FACS, Ba/F3 cells; IC17=0%, DQN0139bb//IC17=100%;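 note: flow cytometry binding of anti-HLA-DQ antibodies at 5 µg/mL, incubated 30 min at room temperature with Ba/F3 lines presenting HLA-DQ/peptide complexes; antibody tested at 5 microgram/mL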
T6 construct: whole, on cells; also called Ba/F3-HLA-DQ7.3
Text: as §1
T6 MHC II alpha: not shown
T6 MHC II beta: not shown

HLA-DQ2.5 on Ba/F3 cells = biological target: T7, HLA-DQ2.5 on Ba/F3 cells (human, UniProt P01909 24-216, limits assumed); assay: FACS, Ba/F3 cells; IC17=0%, DQN0139bb//IC17=100%;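 note: flow cytometry binding of anti-HLA-DQ antibodies at 5 µg/mL, incubated 30 min at room temperature with Ba/F3 lines presenting HLA-DQ/peptide complexes; antibody tested at 5 microgram/mL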
T7 construct: whole, on cells; also called Ba/F3-HLA-DQ2.5
Text: as §1

HLA-DQ8 on Ba/F3 cells = biological target: T8, HLA-DQ8 on Ba/F3 cells (human, UniProt P01909 24-216; P01920 33-230, limits assumed); assay: FACS, Ba/F3 cells; IC17=0%, DQN0139bb//IC17=100%;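 note: flow cytometry binding of anti-HLA-DQ antibodies at 5 µg/mL, incubated 30 min at room temperature with Ba/F3 lines presenting HLA-DQ/peptide complexes; antibody tested at 5 microgram/mL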
T8 construct: whole, on cells; also called Ba/F3-HLA-DQ8
Text: as §1
T8 MHC II alpha: not shown
T8 MHC II beta: not shown

HLA-DQ7.5 on Ba/F3 cells = biological target: T9, HLA-DQ7.5 on Ba/F3 cells (human, UniProt P01909 24-216; P01920 33-230, limits assumed); assay: FACS, Ba/F3 cells; IC17=0%, DQN0139bb//IC17=100%
T9 construct: whole, on cells; also called Ba/F3-HLA-DQ7.5
Text: as §1

HLA-DQ2.2 on Ba/F3 cells = biological target: T10, HLA-DQ2.2 on Ba/F3 cells (human, UniProt P01909 24-216, limits assumed); assay: FACS, Ba/F3 cells; IC17=0%, DQN0139bb//IC17=100%
T10 construct: whole, on cells; also called Ba/F3-HLA-DQ2.2
Text: as §1
T10 MHC II alpha: not shown
T10 MHC II beta: not shown

[10] = biological target: HLA-DQ2.5/33mer gliadin peptide on IHW9088 cells (human); assay: cell-based or functional assay

T5 sequence (P20036 29-222 limits assumed, chain 1 of 4, other chains not shown): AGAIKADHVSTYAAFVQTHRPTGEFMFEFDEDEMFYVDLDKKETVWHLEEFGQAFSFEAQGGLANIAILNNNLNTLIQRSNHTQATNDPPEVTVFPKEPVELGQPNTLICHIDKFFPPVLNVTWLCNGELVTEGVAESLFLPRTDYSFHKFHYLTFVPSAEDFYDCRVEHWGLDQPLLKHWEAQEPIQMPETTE
T5 sequence (P04440 30-225 limits assumed, chain 2 of 4, other chains not shown): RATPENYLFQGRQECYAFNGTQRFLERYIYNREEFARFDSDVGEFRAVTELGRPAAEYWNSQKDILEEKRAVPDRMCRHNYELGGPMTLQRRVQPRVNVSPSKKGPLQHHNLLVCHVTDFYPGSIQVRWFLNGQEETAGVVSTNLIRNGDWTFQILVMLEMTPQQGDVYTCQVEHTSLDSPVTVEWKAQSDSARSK

B1: DQN0344xx//DQN0385ee (bispecific antibody, human IgG1, kappa)
heavy 1: QSLEESGGGLVKPGGTLTLTCTASGFSFSSSYWMCWVRQAPGKGLEWVACVYGGSDTTYYASWTKGRFTISKGSSTTVALQVTSLTAADTATYFCARDPLNYYYYGELNLWGPGTLVTVSSASTKGPSVFPLAPSSKSTSGGTAALGCLVKDYFPEPVTVSWNSGALTSGVHTFPAVLQSSGLYSLSSVVTVPSSSLGTQTYICNVNHKPSNTKVDKRVEPKSCDKTHTCPPCPAPELRRGPSVFLFPPKPKDTLMISRTPEVTCVVVDVSHEDPEVKFNWYVDGVEVHNAKTKPREEQYNSTYRVVSVLTVLHQDWLNGKEYKCKVSNKALPAPIEKTISKAKGQPREPQVYTLPPSREEMTKNQVSLTCLVKGFYPSDIAVEWESNGQPENNYKTTPPYLDSDGSFFLYSKLTVDKSRWQQGNVFSCSVMHEALHNHYTQESLSLSP
light 1: AVVLTQTASPVSAAVGGTVTIRCQATENIYSGLAWYQQKPGQPPKVLIYYVSTLASGVPSRFKGSGSGTEYTLTISGVQCDDAATYYCQTYHDISNVTFGGGTKVEIKRTVAAPSVFIFPPSDEQLKSGTASVVCLLNNFYPREAKVQWKVDNALQSGNSQESVTEQDSKDCTYSLSSTLTLSKADYEKHKVYACEVTHQGLSSPVTKSFNRGEC
heavy 2: QEQLEESGGDLVKPGASLTLTCTASGFSFYSSYWICWVRQAPGKGLEWIACIDTGSGSIDYASWVNGRFTISKTSSTTVTLQMTSLTVADTATYFCARDIGIDYNFWGPGTLVTVSSASTKGPSVFPLAPSSKSTSGGTAALGCLVKDYFPEPVTVSWNSGALTSGVHTFPAVLQSSGLYSLSSVVTVPSSSLGTQTYICNVNHKPSNTKVDKRVEPKSCDKTHTCPPCPAPELRRGPSVFLFPPKPKDTLMISRTPEVTCVVVDVSHEDPEVKFNWYVDGVEVHNAKTKPREEQYNSTYRVVSVLTVLHQDWLNGKEYKCKVSNKALPAPIEKTISKAKGQPREPQVYTLPPSRKEMTKNQVSLTCLVKGFYPSDIAVEWESNGQPENNYKTTPPYLDSDGSFFLYSKLTVDKSRWQQGNVFSCSVMHEALHNHYTQKSLSLSP
light 2: AFELTQTPSFVEAAVGGTVTIKCQATQSISSYLNWYQQKPGQPPKLLIYYASTLASGVPSRFKGSGSGTEFSLTISGVECADAATYYCHYGISYVSFGGGTKVEIKRTVAAPSVFIFPPSDEQLKSGTASVVCLLNNFYPREAKVQWKVDNALQSGNSQESVTEQDSKDCTYSLSSTLTLSKADYEKHKVYACEVTHQGLSSPVTKSFNRGEC
- IC50, Jurkat NFAT-Luc T cell activation [1]: 0.00323 µg/mL
- IC50, Jurkat NFAT-Luc T cell activation [2]: 0.0469 µg/mL
- IC50, Jurkat NFAT-Luc T cell activation [3]: 0.0594 µg/mL
- IC50, Jurkat NFAT-Luc T cell activation [4]: 0.0331 µg/mL
- IC50, Jurkat NFAT-Luc T cell activation [5]: 0.019 µg/mL
- IC50, Jurkat NFAT-Luc T cell activation [6]: 0.000606 µg/mL
- IC50, Jurkat NFAT-Luc T cell activation [7]: 0.892 µg/mL
- IC50, Jurkat NFAT-Luc T cell activation [8]: 0.0177 µg/mL
- binding result (HLA-DQ6.3 on Ba/F3 cells): no binding (tested: 5 microgram/mL)
- binding result (HLA-DR on Ba/F3 cells): no binding (tested: 5 microgram/mL)
- % MFI [9]: 91.3%
- binding result (HLA-DQ5.1 on Ba/F3 cells): no binding (tested: 5 microgram/mL)
- binding result (HLA-DP on Ba/F3 cells): no binding (tested: 5 microgram/mL)

B2: DQN0385ee//IC17 (bispecific antibody, human IgG1, kappa)
heavy 1: QEQLEESGGDLVKPGASLTLTCTASGFSFYSSYWICWVRQAPGKGLEWIACIDTGSGSIDYASWVNGRFTISKTSSTTVTLQMTSLTVADTATYFCARDIGIDYNFWGPGTLVTVSSASTKGPSVFPLAPSSKSTSGGTAALGCLVKDYFPEPVTVSWNSGALTSGVHTFPAVLQSSGLYSLSSVVTVPSSSLGTQTYICNVNHKPSNTKVDKRVEPKSCDKTHTCPPCPAPELRRGPSVFLFPPKPKDTLMISRTPEVTCVVVDVSHEDPEVKFNWYVDGVEVHNAKTKPREEQYNSTYRVVSVLTVLHQDWLNGKEYKCKVSNKALPAPIEKTISKAKGQPREPQVYTLPPSREEMTKNQVSLTCLVKGFYPSDIAVEWESNGQPENNYKTTPPYLDSDGSFFLYSKLTVDKSRWQQGNVFSCSVMHEALHNHYTQESLSLSP
light 1: AFELTQTPSFVEAAVGGTVTIKCQATQSISSYLNWYQQKPGQPPKLLIYYASTLASGVPSRFKGSGSGTEFSLTISGVECADAATYYCHYGISYVSFGGGTKVEIKRTVAAPSVFIFPPSDEQLKSGTASVVCLLNNFYPREAKVQWKVDNALQSGNSQESVTEQDSKDCTYSLSSTLTLSKADYEKHKVYACEVTHQGLSSPVTKSFNRGEC
heavy 2: QVQLQQSGPQLVRPGASVKISCKASGYSFTSYWMHWVNQRPGQGLEWIGMIDPSYSETRLNQKFKDKATLTVDKSSSTAYMQLSSPTSEDSAVYYCALYGNYFDYWGQGTTLTVSSASTKGPSVFPLAPSSKSTSGGTAALGCLVKDYFPEPVTVSWNSGALTSGVHTFPAVLQSSGLYSLSSVVTVPSSSLGTQTYICNVNHKPSNTKVDKRVEPKSCDKTHTCPPCPAPELRRGPSVFLFPPKPKDTLMISRTPEVTCVVVDVSHEDPEVKFNWYVDGVEVHNAKTKPREEQYNSTYRVVSVLTVLHQDWLNGKEYKCKVSNKALPAPIEKTISKAKGQPREPQVYTLPPSRKEMTKNQVSLTCLVKGFYPSDIAVEWESNGQPENNYKTTPPYLDSDGSFFLYSKLTVDKSRWQQGNVFSCSVMHEALHNHYTQKSLSLSP
light 2: DIQMTQSSSSFSVSLGDRVTITCKASEDIYNRLAWYQQKPGNAPRLLISGATSLETGVPSRFSGSGSGKDYTLSITSLQTEDVATYYCQQYWSTPYTFGGGTKLEVKRTVAAPSVFIFPPSDEQLKSGTASVVCLLNNFYPREAKVQWKVDNALQSGNSQESVTEQDSKDSTYSLSSTLTLSKADYEKHKVYACEVTHQGLSSPVTKSFNRGEC
- % MFI (HLA-DQ7.3 on Ba/F3 cells): 0.1%
- % MFI (HLA-DQ2.5 on Ba/F3 cells): 0.1%
- % MFI (HLA-DQ8 on Ba/F3 cells): 0.1%
- % MFI (HLA-DQ7.5 on Ba/F3 cells): 0.1%
- % MFI (HLA-DQ2.2 on Ba/F3 cells): 0.3%
- IC50 (read off the curve) [10]: ~0.06 microgram/mL
